Holding throughout (assay): SPR (Biacore 3000), Fab immobilized on CM5, peptide as analyte, 1:1 fit, 25 C
In general terms: Surface plasmon resonance follows binding to a sensor surface in real time, without labels.

Assay [1] concerns the target T1, aTNFa-Fab (Fab fragment of Infliximab) (Chimeric antibody/IgG1κ).
T1 construct: domain: Fab fragment; also called Infliximab Fab; Remicade Fab

Assay [2] has as its target T1, aTNFa-Fab (Fab fragment of Infliximab). The source holds these as a separate data set.
Assay [3] has the same target. The source holds these as a separate data set.

Numbering of substitutions follows the chain as printed. Read-outs that look alike come from different tables or passages of the source.

Among the data in patent publication US20190119362A1 (KANEKA, published 2019) are Ka, koff and kon values, retold here.

A word on the koff: it is the first-order rate constant of dissociation. A high value points to fast dissociation. Usually kon stands for the rate constant with which the complex forms.

B1: LB3t-Wild.1d (other)
chain: GPLGSEEVTIKANLIYADGKTQTAEFKGTFEEATAEAYRYADLLAKENGKYTVDVADKGYTLNIKFAG
notes: also called B3 domain
As for B1, in assay [1], the Ka is 100000 M⁻¹, the koff came out at 0.305 s⁻¹ and the kon worked out at 20000 M⁻¹ s⁻¹.

B2: LB4t-Wild.1d (other)
chain: B1 chain with E31A, V53A, V55L, A56E, K58G, L62I, K65R
notes: also called B4 domain
In assay [1], B2 showed a Ka of 300000 M⁻¹, a koff of 0.239 s⁻¹ and a kon of 70000 M⁻¹ s⁻¹.

B3: LC1t-Wild.1d (other)
chain: GPLGSEEVTIKANLIFADGSTQNAEFKGTFAKAVSDAYAYADALKKDNGEYTVDVADKGLTLNIKFAGK
notes: also called C1 domain
In assay [2], B3 displayed a Ka of 200000 M⁻¹, a koff of 0.152 s⁻¹ and a kon of 20000 M⁻¹ s⁻¹.

B4: LB1t-Wild.1d (other)
chain: GPLGSEEVTIKANLIFANGSTQTAEFKGTFEKATSEAYAYADTLKKDNGEYTVDVADKGYTLNIKFAG
notes: also called B1 domain
Regarding B4, in assay [1], the Ka turned out to be 30000 M⁻¹, the koff worked out at 0.481 s⁻¹ and the kon was found to be 10000 M⁻¹ s⁻¹.

B5: LB5t-Wild.1d (B5 domain of PpL 312 with deletion of N-terminal region) (other)
chain: GPLGSEQVTIKENIYFEDGTVQTATFKGTFAEATAEAYRYADLLSKEHGKYTADLEDGGYTINIRFAG
As for B5, in assay [3], the Ka stood at 700000 M⁻¹, the koff stood at 0.215 s⁻¹ and the kon turned out to be 150000 M⁻¹ s⁻¹.

B6: LC4t-Wild.1d (other)
chain: GPLGSEEVTIKVNLIFADGKTQTAEFKGTFEEATAEAYRYADLLAKVNGEYTADLEDGGYTINIKFAGK
notes: also called C4 domain
Take B6: in assay [2], the Ka was 20000 M⁻¹, the koff was 0.397 s⁻¹ and the kon came to 10000 M⁻¹ s⁻¹.
